The values that follow come from patent publication US20240197877A1 (published 2024).

Numbering of substitutions follows the chain as printed.

This experiment has as its target T1, MYO1G (HA-2 SNP; MYO1G(M) variant) peptide on HLA-A*02:01 (human).
T1 peptide: YIGEVLVSM
In words: multimer staining.

B1: HA2-MJ13-SP43 (TCR, V domains shown)
Valpha: QKEVEQNSGPLSVPEGAIASLNCTYSDRGSQSFFWYRQYSGKSPELIMFIYSNGDKEDGRFTAQLNKASQYVSLLIRDSQPSDSATYLCAVKGAGYSTLTFGKGTMLLVSP
Vbeta: NAGVTQTPKFQVLKTGQSMTLQCAQDMNHEYMSWYRQDPGMGLRLIHYSVGAGITDQGEVPNGYNVSRSTTEDFPLRLLSAAPSQTSVYFCASSDGGALAYFGPGTRLTVL
Regarding B1, the binding result is “no recognition”.

B2: HA2-MJ14-SP4 (TCR, V domains shown)
Valpha: B1 Valpha with K92R, G93R, A94S
Vbeta: NAGVTQTPKFQVLKTGQSMTLQCAQDMNHEYMSWYRQDPGMGLRLIHYSVGAGITDQGEVPNGYNVSRSTTEDFPLRLLSAAPSQTSVYFCASSLGAEAFFGQGTRLTVV
With B2, the binding result was “no recognition”.
